From PMC12915084, “A dsRNA Viral Transcriptional Regulator Evades Innate Immunity by Hijacking Host CoTranscription Factor DHX9” come the findings set out here.

Data set [1] deals with T1, σ3 WT (REOV outer capsid protein) (Mammalian orthoreovirus, UniProt P07939 1-365).
T1 sequence: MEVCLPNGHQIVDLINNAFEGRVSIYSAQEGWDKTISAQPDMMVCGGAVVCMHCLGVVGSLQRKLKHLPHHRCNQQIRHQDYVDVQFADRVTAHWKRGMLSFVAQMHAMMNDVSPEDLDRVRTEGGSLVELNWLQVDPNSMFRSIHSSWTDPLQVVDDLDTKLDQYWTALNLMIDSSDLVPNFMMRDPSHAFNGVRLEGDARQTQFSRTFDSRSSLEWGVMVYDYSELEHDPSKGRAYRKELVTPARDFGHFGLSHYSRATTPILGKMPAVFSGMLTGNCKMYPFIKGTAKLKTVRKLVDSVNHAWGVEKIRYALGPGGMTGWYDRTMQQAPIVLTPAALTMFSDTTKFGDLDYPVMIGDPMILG
In words: EMSA; no shift at any σ3 concentration tested; 5 nM R-loop; without DHX9; EMSA: 5 nM R-loop, 0.5% NP-40, 150 mM NaCl, 20 mM Tris-Cl pH 8.0, 0.5 mM EDTA, 37 °C 15 min; 6% native PAGE. Particulars: protein: recombinant; tags: Flag; label: 5' Cy5.5 on RNA; three-strand R-loop, DNA duplex arms around an unpaired bubble; RNA nt 1-30 pair with ssDNA-2, 3' RNA overhang 30 nt.

A further data set deals with DHX9 (UniProt Q08211 1-1270). Kind of data set: EMSA; shift at 20 nM DHX9; 5 nM R-loop; no ATP or Mg2+ listed in binding buffer; EMSA: 5 nM R-loop, 0.5% NP-40, 150 mM NaCl, 20 mM Tris-Cl pH 8.0, 0.5 mM EDTA, 37 °C 15 min; 6% native PAGE. Particulars: protein: recombinant; tags: Flag; label: 5' Cy5.5 on RNA; three-strand R-loop, DNA duplex arms around an unpaired bubble; RNA nt 1-30 pair with ssDNA-2, 3' RNA overhang 30 nt.
Sequence of DHX9 (Q08211 whole entry): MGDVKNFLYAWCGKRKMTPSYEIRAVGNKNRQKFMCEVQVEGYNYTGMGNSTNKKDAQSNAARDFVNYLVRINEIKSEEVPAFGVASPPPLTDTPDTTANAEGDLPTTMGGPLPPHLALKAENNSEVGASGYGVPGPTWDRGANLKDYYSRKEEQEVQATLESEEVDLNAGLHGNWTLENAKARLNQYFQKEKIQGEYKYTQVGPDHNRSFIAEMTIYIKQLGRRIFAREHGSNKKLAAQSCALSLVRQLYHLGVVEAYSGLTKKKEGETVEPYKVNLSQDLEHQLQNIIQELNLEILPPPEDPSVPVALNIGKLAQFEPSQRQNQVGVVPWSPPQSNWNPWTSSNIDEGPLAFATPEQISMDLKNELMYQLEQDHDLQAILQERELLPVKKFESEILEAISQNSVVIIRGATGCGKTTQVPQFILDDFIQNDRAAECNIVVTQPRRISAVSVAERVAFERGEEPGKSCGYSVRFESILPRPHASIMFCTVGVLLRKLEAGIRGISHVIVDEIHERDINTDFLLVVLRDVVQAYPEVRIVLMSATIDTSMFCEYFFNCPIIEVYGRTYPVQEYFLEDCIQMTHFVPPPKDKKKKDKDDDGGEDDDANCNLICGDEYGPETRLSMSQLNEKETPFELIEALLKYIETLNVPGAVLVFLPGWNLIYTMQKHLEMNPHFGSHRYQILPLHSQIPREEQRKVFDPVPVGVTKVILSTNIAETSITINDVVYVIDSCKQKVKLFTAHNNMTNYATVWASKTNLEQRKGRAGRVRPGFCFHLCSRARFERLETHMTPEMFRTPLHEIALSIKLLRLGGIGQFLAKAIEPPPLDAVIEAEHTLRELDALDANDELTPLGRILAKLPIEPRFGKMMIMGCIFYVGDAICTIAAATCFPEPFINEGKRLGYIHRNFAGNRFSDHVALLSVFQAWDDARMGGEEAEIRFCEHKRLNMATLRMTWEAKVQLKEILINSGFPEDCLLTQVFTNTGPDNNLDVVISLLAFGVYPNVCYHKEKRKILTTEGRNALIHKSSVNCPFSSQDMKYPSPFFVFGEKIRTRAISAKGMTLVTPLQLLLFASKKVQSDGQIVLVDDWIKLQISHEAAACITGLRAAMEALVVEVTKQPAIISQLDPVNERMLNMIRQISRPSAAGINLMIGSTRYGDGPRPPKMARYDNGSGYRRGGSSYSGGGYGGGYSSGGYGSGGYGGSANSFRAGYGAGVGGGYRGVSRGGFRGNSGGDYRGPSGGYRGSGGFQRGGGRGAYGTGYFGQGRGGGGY

B1: R-loop substrate with RNA 3' overhang (mixed)
DNA 1: CATTGCATATTTAAAACATGTTGGATCCCACGTTGCATGCTGATAGCCTACTAGAGCTGTATGAATTCAAATGACCTCTTATCAAGTGAC
DNA 2: GTCACTTGATAAGAGGTCATTTGAATTCATGGCTTAGAGCTTAATTGCTGAATCTGGTGCTGGGATCCAACATGTTTTAAATATGCAATG
RNA: GCACCAGAUUCAGCAAUUAAGCUCUAAGCCGCUGACGGCUCGAUGCUGAUCGUAGCAUCG
In the case of B1, the binding result in data set [1] is listed as “no binding”; with DHX9 it was “binds”.
